Here are results for 1 substance from paper PMC5609567 (Biochemical Pharmacology, 2017).

What all share (test): Radioligand binding
One experiment deals with T1, E348A RAMP2/CLR (Homo sapiens, UniProt O60895+Q16602, E348A).
T1 construct: expressed in transfected cells; host or cells: Cos7 (membranes)
The conditions noted are these: 125I-AM bound (span of displacement curve) normalized to WT, n = 3. As for the experimental part: (§1) This was performed on membranes made from transfected Cos7 cells, essentially as described elsewhere. […] Incubations were terminated by centrifugation.
(§2) Radioligand binding data were analysed in Graphpad Prism as described for the cAMP assays.

A further experiment concerns the target T2, F349A RAMP2/CLR (Homo sapiens, UniProt O60895+Q16602, F349A).
T2 construct: expressed in transfected cells; host or cells: Cos7 (membranes)
The conditions noted are these: 125I-AM bound (span of displacement curve) normalized to WT, n = 3. As for the experimental part: as §1, §2

For another experiment, the target named is T3, H374A RAMP1/CLR (Homo sapiens, UniProt O60894+Q16602, H374A).
T3 construct: expressed in transfected cells; host or cells: Cos7 (membranes)
The settings on record: H374A CLR/RAMP1, Cos7 membranes. The method, then: as §1, §2

The target of the next experiment is T4, M230A RAMP2/CLR (Homo sapiens, UniProt O60895+Q16602, M230A).
T4 construct: expressed in transfected cells; host or cells: Cos7 (membranes)
The conditions noted are these: 125I-AM bound (span of displacement curve) normalized to WT, n = 3. As for the experimental part: as §1, §2

A further experiment has as its target T5, N305A RAMP2/CLR (Homo sapiens, UniProt O60895+Q16602, N305A).
T5 construct: expressed in transfected cells; host or cells: Cos7 (membranes)
The conditions noted are these: 125I-AM bound (span of displacement curve) normalized to WT, n = 3. As for the experimental part:
as §1, §2

A further experiment concerns the target T6, WT RAMP1/CLR (Homo sapiens, UniProt O60894+Q16602).
T6 construct: expressed in transfected cells; host or cells: Cos7 (membranes)
The conditions noted are these: WT CLR/RAMP1, Cos7 membranes. As for the experimental part:
as §1, §2

For another experiment, the system named is V198A RAMP2/CLR. Set-up: species or system human. The settings on record: 125I-AM bound (span of displacement curve) normalized to WT, n = 3. The method, then: as §1
Radioligand binding data were analysed in Graphpad Prism as described for the cAMP assays. […] Thus for each mutant, the total specific binding relative to WT was calculated from the span values and the 95% confidence limits were calculated. This relies on the Bmax value not changing; while this is consistent with our ELISA data, we cannot rule out a contribution to […] arising from a small change in receptor expression.

T1 sequence (Q16602 23-461 E348A): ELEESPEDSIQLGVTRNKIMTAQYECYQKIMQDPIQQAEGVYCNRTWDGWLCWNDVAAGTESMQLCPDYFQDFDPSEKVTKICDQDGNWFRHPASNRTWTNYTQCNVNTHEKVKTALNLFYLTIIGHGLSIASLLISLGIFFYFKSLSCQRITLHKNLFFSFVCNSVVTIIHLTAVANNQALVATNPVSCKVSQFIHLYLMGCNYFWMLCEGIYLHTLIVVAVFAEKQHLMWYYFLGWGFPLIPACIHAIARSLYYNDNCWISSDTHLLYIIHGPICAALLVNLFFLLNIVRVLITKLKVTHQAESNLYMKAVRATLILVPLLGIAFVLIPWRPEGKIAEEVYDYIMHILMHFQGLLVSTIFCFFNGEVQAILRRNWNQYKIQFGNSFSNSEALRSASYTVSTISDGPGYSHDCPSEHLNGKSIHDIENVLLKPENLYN
T1 sequence (O60895 43-175): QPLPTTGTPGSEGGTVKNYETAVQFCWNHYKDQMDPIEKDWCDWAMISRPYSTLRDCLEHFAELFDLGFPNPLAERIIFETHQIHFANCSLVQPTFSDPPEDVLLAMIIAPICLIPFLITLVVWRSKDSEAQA
T3 sequence (Q16602 23-461 H374A): as the sequence (Q16602 23-461 E348A) above, with A326E, H352A counted along it
T3 sequence (O60894 27-148): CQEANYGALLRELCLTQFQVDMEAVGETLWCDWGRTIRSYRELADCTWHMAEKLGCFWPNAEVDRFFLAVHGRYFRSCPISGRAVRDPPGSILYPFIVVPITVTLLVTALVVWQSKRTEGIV
T5 sequence (Q16602 23-461 N305A): as the sequence (Q16602 23-461 E348A) above, with N283A, A326E counted along it
T5 sequence (O60895 43-175): as the sequence (O60895 43-175) above
T2 sequence (Q16602 23-461 F349A): as the sequence (Q16602 23-461 E348A) above, with A326E, F327A counted along it
T2 sequence (O60895 43-175): as the sequence (O60895 43-175) above
T6 sequence (Q16602 23-461): as the sequence (Q16602 23-461 E348A) above, with A326E counted along it
T6 sequence (O60894 27-148): as the sequence (O60894 27-148) above
T4 sequence (Q16602 23-461 M230A): as the sequence (Q16602 23-461 E348A) above, with M208A, A326E counted along it
T4 sequence (O60895 43-175): as the sequence (O60895 43-175) above

With “[^125I]-human (13–52) iodotyrosyl^52adrenomedullin [125I-AM]”, the “% Ligand bound” value was found to be 147.9 ± 2.9 % in the experiment with E348A RAMP2/CLR; 132.3 ± 4.3 % with F349A RAMP2/CLR; 109.4 ± 3.7% with M230A RAMP2/CLR; 62.7 ± 4.7 % with N305A RAMP2/CLR; 116.2 ± 3.7 % with V198A RAMP2/CLR. Further, the “specific binding of 125I-AM” value with H374A RAMP1/CLR is 5243 ± 112 dpm/mg; in the experiment with WT RAMP1/CLR, 78 ± 208 dpm/mg.
